According to US7470769B2, “Epidermal growth factor receptor antagonists and methods of use” (Molecular Logix, Inc., priority 2004, dated 2008):

Key:
[1] = target: T1, EGFR in the form of A431 cell membrane receptor preparations (Homo sapiens, UniProt P00533); test: EGFR kinase ELISA; type: biochemical; settings: variant alone, compared with MLX hEGF
T1 construct: EGFR in the form of A431 cell membrane receptor preparations; endogenous in cells; host or cells: A431 cell membranes
Description: (§1) To examine the kinase activity of epidermal growth factor receptor (EGFR) in the presence of hEGF and EGF variants, an ELISA was developed. Briefly, an ELISA plate is coated with poly-glu, tyr (4:1) which serves as a substrate for tyrosine phosphorylation by the EGFR. The ELISA plate is then incubated with assay buffer, which includes an ATP generating system, EGFR in the form of A431 cell membrane receptor preparations, and EGF variant. After a 15 minute incubation ATP is added to the reaction to allow the kinase activity to proceed. Anti-phosphotyrosine antibody is added to bind to the phosphorylated tyrosine bound to the plate. Anti-mouse HRP conjugate antibody is added as the detection antibody, which is visualized with the addition of tetramethyl benzidine (TMB).
The glycine at position 18 was replaced by glutamate (G18E), glutamine (G18Q), lysine (G18K), phenylalanine (G18F), and leucine (G18L). These variants were tested in the kinase assay described above and compared with recombinant wild-type human EGF (MLX hEGF).
The following variations in the glycine at position 39 were made: G39E, G39Q, G39K, and G39L.

BALB/3T3 cells = test: BALB/3T3 proliferation competition assay with hEGF; type: cell-based, murine; settings: 0.5 nM and 5.0 nM hEGF, 48 hours
Description: The BALB/3T3 proliferation assay was modified to test variants for competition with hEGF in the stimulation of BALB/3T3 cell proliferation. Serial dilutions of the test mutants were tested for proliferation in the presence of 0 nM, 0.5 nM, and 5 nM of the MLX-hEGF. BALB/3T3 cells were suspended at 3E4 cells/ml in complete serum media. 100 ul of cell suspension was plated per well in 96-well plates and incubated for 20-24 hours. Media was then aspirated from the wells, and the cells were washed once with DPBS. His-tagged wild-type hEGF at twice the final concentration was added in 50 ul/well. Serial dilutions of test mutants were prepared at twice the final concentration in serum-free media and 50 ul was added per well, bringing the final volume per well to 100 ml at the target concentrations of wt-hEGF and test mutants. Assay plates were incubated for 48 hours and cell proliferation was determined with WST-1 cell proliferation reagent (10 ul/well, 5 hr incubation). The absorbance at 450 nm was read with a microplate reader.

[2] = tested on: HER5 cell line (expresses the human EGF receptor); test: HER5 cell proliferation assay (WST-1); type: cell-based, murine; settings: 48 hour proliferation, serum-free, WST-1 OD 450
Description: The HER5 cell line, a murine fibroblast line (derived from the NR-6 line) that has been stably transfected to express the human EGF receptor was provided by Dr. M. C. Hung (MD Anderson Cancer Center). Stock cultures of HER5 were propagated in D-MEM/F12 medium containing 10% fetal bovine serum, 100 units/ml of penicillin and 100 ug/ml of streptomycin in a water-jacketed incubator at 37° C. in a humidified 5% CO2 atmosphere. For HER5 proliferation assays, the cells were changed into DMEM/F12 without serum for 24 hours. Cells were then trypsinized and suspended at 1E5 cells/ml. Serial dilutions of hEGF (PeproTech, Rocky Hill, N.J.), His-tagged hEGF, test proteins were prepared in serum-free DMEM/F12 at 2-fold the final concentration and plated into the wells of 96-well plates. Fifty microliters of cell suspension (5000 cells) were added to appropriate wells bringing the total volume to 100 ul at the desired concentrations. Plates were incubated for a 48 hour proliferation period. Cell proliferation was determined by addition of 10 ul/well of WST-1 Cell Proliferation Reagent (Roche Applied Sciences, Indianapolis, Ind.) for the last three hours of the proliferation period. […] The amount of formazan was measured at 450 nm using a microplate reader (Dynex Technologies) with MRX Revelation software.

[3] = tested on: hEGF-stimulated cell proliferation; test: Inhibition of hEGF-stimulated cell proliferation (FIG. 4, FIG. 5); type: cell-based; settings: figure legends, cell line not stated
[4] = target: T1, EGFR in the form of A431 cell membrane receptor preparations; test: EGFR kinase competition ELISA; type: biochemical; settings: 50 nM human EGF added
Description: as §1
The EGFR kinase competition assay is basically the same as outlined above in the description of the kinase ELISA. The difference is that in the initial incubation with the EGFR and EGF variant, 50 nM human EGF is added which competes with the EGF variant for binding to the EGFR. Both the variant EGF and the human EGF are added to the assay plate before the addition of the EGFR and assay buffer, making sure neither ligand has an advantage in binding to the EGFR.

EGFR = EGFR (Homo sapiens, UniProt P00533); test: EGFR dimerization (FIG. 6)

activation of the EGFR kinase [1] | triggering of EGFR dimerization (EGFR) | Substance | competition with hEGF in stimulation of BALB/3T3 cell proliferation (BALB/3T3 cells) | potency in the HER5 proliferation assay [2] | inhibition of hEGF-stimulated cell proliferation [3] | competition with hEGF-related stimulation of EGFR kinase [4]
some slight activity |  | G39E: hEGF polypeptide variant, G39 replaced by glutamate (NSDSECPLSHDGYCLHDGVCMYIEALDKYACNCVVGYIEERCQYRDLKWWELR; not fully specified; left off: small tags and cut ends) |  |  |  | 
some slight activity |  | G39K: hEGF polypeptide variant, G39 replaced by lysine (NSDSECPLSHDGYCLHDGVCMYIEALDKYACNCVVGYIKERCQYRDLKWWELR; not fully specified; left off: small tags and cut ends) | Apparent competition was observed at both hEGF concentrations | least potency in that series |  | 
 |  | G39L: hEGF polypeptide variant, G39 replaced by leucine (NSDSECPLSHDGYCLHDGVCMYIEALDKYACNCVVGYILERCQYRDLKWWELR; not fully specified; left off: small tags and cut ends) | only seen in at 0.5 nM hEGF | least potency in that series | inhibition of hEGF-stimulated cell proliferation | marked interference with hEGF-related stimulation of EGFR kinase
unable to activate the EGFR kinase | does not trigger EGFR dimerization | V35EG39L: hEGF polypeptide variant, glycine 39 substituted with leucine and valine 35 with glutamic acid (NSDSECPLSHDGYCLHDGVCMYIEALDKYACNCVEGYILERCQYRDLKWWELR; not fully specified; left off: small tags and cut ends) |  |  | inhibition of hEGF-stimulated cell proliferation | marked interference with hEGF-related stimulation of EGFR kinase
